Series [1] concerns the target T1, RuvAz87 (Escherichia coli, UniProt P0A809 1-203, N79D;N100D).
T1 sequence: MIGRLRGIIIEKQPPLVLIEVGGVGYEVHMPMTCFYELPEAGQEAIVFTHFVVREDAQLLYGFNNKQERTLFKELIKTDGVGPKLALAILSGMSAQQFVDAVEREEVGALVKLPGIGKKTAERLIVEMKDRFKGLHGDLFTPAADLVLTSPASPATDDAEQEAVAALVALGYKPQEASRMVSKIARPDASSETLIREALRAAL
In words: EMSA; 5 mM EDTA; EMSA with ~4-5 ng labelled DNA; 5 mM EDTA (gel 0.5x TBE) or 3 mM MgCl2 without EDTA (gel 0.5x TB + 200 uM MgCl2); buffer as in cited ref 18; salt, pH and temperature not stated. As to conditions: protein: recombinant; chain copies: 4; label: 5' IRD700 on S24 (IT.01); fork of 3 strands; two arms double-stranded, one single-stranded (5' part of strand 2). On the technique in general: In EMSA bound probe runs differently from free probe, usually more slowly.

Series [2] addresses T2, RuvAz3 (Escherichia coli, UniProt P0A809 1-203, H29R;K129E;F140S).
T2 sequence: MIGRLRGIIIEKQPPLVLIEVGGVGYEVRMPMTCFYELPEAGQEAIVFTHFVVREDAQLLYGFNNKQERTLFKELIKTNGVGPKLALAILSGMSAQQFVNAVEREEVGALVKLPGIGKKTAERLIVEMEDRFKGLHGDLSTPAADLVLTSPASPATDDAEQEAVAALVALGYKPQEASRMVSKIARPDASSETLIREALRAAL
Described as above. The note with it: protein: recombinant; chain copies: 4; label: 5' IRD700 on S24 (IT.01); fork of 3 strands; two arms double-stranded, one single-stranded (5' part of strand 2).

Series [3] deals with T1, RuvAz87. In words: EMSA; 3 mM Mg2+; EMSA with ~4-5 ng labelled DNA; 5 mM EDTA (gel 0.5x TBE) or 3 mM MgCl2 without EDTA (gel 0.5x TB + 200 uM MgCl2); buffer as in cited ref 18; salt, pH and temperature not stated. The note with it: protein: recombinant; chain copies: 4; label: 5' IRD700 on S24 (IT.01); three-arm fork of 4 strands, all arms double-stranded.
Series [4] deals with T2, RuvAz3. The series is described as above. As to conditions: protein: recombinant; chain copies: 4; label: 5' IRD700 on S24 (IT.01); three-arm fork of 4 strands, all arms double-stranded.

B1: F1 (fork, one arm single-stranded) (structured_DNA)
DNA 1: GACGCTGCCGAATTCTACCAGTGCCTTGCTAGGACATCTTTGCCCACCTGCAGGTTCACCC
DNA 2: ATGGATAGTCGGATCCTCTAGACAGCTCCATGTAGCAAGGCACTGGTAGAATTCGGCAGCGT
DNA 3: TGGGTGAACCTGCAGGTGGGCAAAGATGTCC
Regarding B1, the binding result with RuvAz87 [1] and with RuvAz3 [2] was “no binding” throughout.

B2: F2 (fork, three double-stranded arms) (structured_DNA)
DNA 1: GACGCTGCCGAATTCTACCAGTGCCTTGCTAGGACATCTTTGCCCACCTGCAGGTTCACCC
DNA 2: ATGGATAGTCGGATCCTCTAGACAGCTCCATGTAGCAAGGCACTGGTAGAATTCGGCAGCGT
DNA 3: TGGGTGAACCTGCAGGTGGGCAAAGATGTCC
DNA 4: CATGGAGCTGTCTAGAGGATCCGACTATCGA
For B2, the binding result with RuvAz87 [3] and with RuvAz3 [4] was “no binding” in each case.

These data come from PMC2265524, “ruvA Mutants That Resolve Holliday Junctions but Do Not Reverse Replication Forks” (PLoS Genetics, 2008).
